Patent US20140178389A1 (AbbVie / Abbott, published 2014)

T1: recombinant cynomolgus IL-1α (cynomolgus, UniProt P79340 113-271)
T1 construct: also called Cyno IL-1α; Cyno IL-1alpha
T1 sequence (looked up): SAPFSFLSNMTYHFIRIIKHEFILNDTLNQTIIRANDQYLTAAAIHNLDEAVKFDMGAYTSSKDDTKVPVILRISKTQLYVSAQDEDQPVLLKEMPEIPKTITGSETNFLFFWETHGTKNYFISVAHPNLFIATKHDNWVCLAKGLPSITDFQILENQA

T2: recombinant human IL-1α (human, UniProt P01583 113-271)
T2 construct: also called Hu IL-1alpha; hIL-1α
T2 sequence: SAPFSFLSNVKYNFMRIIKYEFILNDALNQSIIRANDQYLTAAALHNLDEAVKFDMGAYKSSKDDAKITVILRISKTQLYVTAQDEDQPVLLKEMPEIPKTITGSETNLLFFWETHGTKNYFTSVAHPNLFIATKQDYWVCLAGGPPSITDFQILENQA

T3: recombinant cynomolgus IL-1β (cynomolgus, UniProt P79182 117-268)
T3 construct: It was biotinylated in the ELISA and in the yeast display experiments; also called Cyno IL-1β; Cyno IL-1beta
T3 sequence (looked up): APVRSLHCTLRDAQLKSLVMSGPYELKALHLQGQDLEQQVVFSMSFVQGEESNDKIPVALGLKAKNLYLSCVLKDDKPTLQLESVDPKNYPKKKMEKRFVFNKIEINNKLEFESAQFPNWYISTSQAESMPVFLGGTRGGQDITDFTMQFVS

T4: native human IL-1α present in crude supernatants (human, UniProt P01583 113-271, limits assumed)
T4 sequence (looked up): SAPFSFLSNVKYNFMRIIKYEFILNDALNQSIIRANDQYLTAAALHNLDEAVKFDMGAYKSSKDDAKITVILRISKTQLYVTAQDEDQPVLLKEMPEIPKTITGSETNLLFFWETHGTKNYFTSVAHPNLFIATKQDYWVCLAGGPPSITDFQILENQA


Columns and labels:
recombinant human IL-1β [1] = molecular target: T5, recombinant human IL-1β (human, UniProt P01584 117-269); experiment: SPR (BIAcore), DVD-Ig captured via goat anti-human IgG Fc
T5 construct: It was biotinylated in the ELISA and in the yeast display experiments; also called Hu IL-1beta; huIL-1b
Procedure: (§1) Goat IgGs specific to human IgG Fc were covalently linked to the carboxy methyl dextran matrix on the CMS biosensor chip via free amine groups using an amine coupling kit and the immobilization wizard option in the Biacore instruments controlling software. Specifically, carboxyl groups of the dextran matrix on the chip were activated with NHS and EDC. Goat anti-human IgG Fc antibodies (25 μg/mL), diluted in 10 mM sodium acetate, pH 4.5, were injected across the activated surface. Once the level of binding response reached the desired value, unreacted groups were deactivated by injection of 1M ethanolamine. For binding of IL-1α & IL-1β to captured Ig, a 1 μg/mL concentration of Ig in HBS-EP+ was injected over the goat anti-human IgG Fc surface at a flow rate of 10 μL/min for 1 minute. The net difference in the baseline signal and the signal after the completion of the Ig injection was taken to represent the amount of bound Ig.
(§2) The potency of the 5 DVD-Igs containing affinity matured h1B12.1 domains to recombinant and native IL-1 antigens was determined using the MRC-5 bioassay as shown in Table 24. The binding kinetics of the DVD-Igs to recombinant human and cynomolgus IL-1α and IL-1β were determined using surface plasmon resonance. In some cases, the off-rate could not be determined as they reached the limit of detection of the instrument.

[2] = molecular target: T1, recombinant cynomolgus IL-1α; experiment: as above
Procedure: as §1, §2

recombinant human IL-1α [3] = molecular target: T2, recombinant human IL-1α; experiment: as above
Procedure: as §1, §2

[4] = molecular target: T3, recombinant cynomolgus IL-1β; experiment: as above
Procedure: as §1, §2

recombinant human IL-1β [5] = molecular target: T5, recombinant human IL-1β; experiment: cell-based or functional assay
[6] = molecular target: T1, recombinant cynomolgus IL-1α; experiment: cell-based or functional assay
recombinant human IL-1α [7] = molecular target: T2, recombinant human IL-1α; experiment: cell-based or functional assay
[8] = molecular target: T3, recombinant cynomolgus IL-1β; experiment: cell-based or functional assay
[9] = molecular target: T4, native human IL-1α present in crude …; experiment: cell-based or functional assay
[10] = molecular target: purified native human IL-1β (human, UniProt P01584 117-269); experiment: cell-based or functional assay

Row | Binder | Kd (recombinant human IL-1β [1]) [nM] | koff (recombinant human IL-1β [1]) [s⁻¹] | kon (recombinant human IL-1β [1]) [M⁻¹ s⁻¹] | Kd [2] [nM] | koff [2] [s⁻¹] | kon [2] [M⁻¹ s⁻¹] | Kd (recombinant human IL-1α [3]) [nM] | koff (recombinant human IL-1α [3]) [s⁻¹] | kon (recombinant human IL-1α [3]) [M⁻¹ s⁻¹] | Kd [4] [nM] | koff [4] [s⁻¹] | kon [4] [M⁻¹ s⁻¹] | Potency (IC50) pM, MRC-5 bioassay (recombinant human IL-1β [5]) [pM] | Potency (IC50) pM, MRC-5 bioassay [6] [pM] | Potency (IC50) pM, MRC-5 bioassay (recombinant human IL-1α [7]) [pM] | Potency (IC50) pM, MRC-5 bioassay [8] [pM] | Potency (IC50) pM, MRC-5 bioassay [9] [pM] | Potency (IC50) pM, MRC-5 bioassay [10] [pM]
1 | DVD1-h1B12.13-SS-X3, human anti-IL-1α/β DVD IgG1/k mut (234,235) (bispecific antibody, also called PR-1358316) heavy: not shown light: DIQMTQSPSSLSASVGDRVTITCQTSTDIDDDLNWYQQKPGKAPKLLISLASTLRPGVPSRFSGSGSGTDFTFTISSLQPEDFATYYCLQSDRLPLTFGQGTKLEIKRTVAAPDIQMTQSPSSVSASVGDRVTITCRASQGISSWLAWYQQKPGKAPKLLIYEASNLETGVPSRFSGSGSGSDFTLTISSLQPEDFATYYCQQTSSFLLSFGGGTKVEHKRTVAAPSVFIFPPSDEQLKSGTASVVCLLNNFYPREAKVQWKVDNALQSGNSQESVTEQDSKDSTYSLSSTLTLSKADYEKHKVYACEVTHQGLSSPVTKSFNRGEC | 0.00022 | 5.1e-06 | 2.3e+07 | 2.3 | 0.00023 | 100000 | 0.021 | 2.9e-06 | 140000 | 0.0015 | 1.7e-05 | 1.2e+07 | 55.9 | 2440 | 45.4 | 3.62 | 24.4 | 1.64
2 | DVD4-h1B12.A1-SS-X3, human anti-IL-1α/β DVD IgG1/k mut (234,235) (bispecific antibody, also called PR-1358319) heavy: not shown light: DIQMTQSPSSLSASVGDRVTITCQASQDIDMDLNWYQQKPGKAPKLLISQANTLPPGVPSRFSGSGSGTDFTFTISSLQPEDFATYYCLQSDWLPLTFGQGTKLEIKRTVAAPDIQMTQSPSSVSASVGDRVTITCRASQGISSWLAWYQQKPGKAPKLLIYEASNLETGVPSRFSGSGSGSDFTLTISSLQPEDFATYYCQQTSSFLLSFGGGTKVEHKRTVAAPSVFIFPPSDEQLKSGTASVVCLLNNFYPREAKVQWKVDNALQSGNSQESVTEQDSKDSTYSLSSTLTLSKADYEKHKVYACEVTHQGLSSPVTKSFNRGEC | ≤ 0.00098 | ≤ 1e-05 | 1.1e+07 | 2.6 | 0.00035 | 130000 | 0.2 | 3.6e-05 | 180000 | 0.0018 | 9.6e-06 | 5.3e+06 | 58.6 | 2580 | 38.6 | 4.02 | 50.9 | 2.46

More lines, in order of falling Kd (recombinant human IL-1β [1]), values ahead:

Row | Kd (recombinant human IL-1β [1]) [nM] | koff (recombinant human IL-1β [1]) [s⁻¹] | kon (recombinant human IL-1β [1]) [M⁻¹ s⁻¹] | Kd [2] [nM] | koff [2] [s⁻¹] | kon [2] [M⁻¹ s⁻¹] | Kd (recombinant human IL-1α [3]) [nM] | koff (recombinant human IL-1α [3]) [s⁻¹] | kon (recombinant human IL-1α [3]) [M⁻¹ s⁻¹] | Kd [4] [nM] | koff [4] [s⁻¹] | kon [4] [M⁻¹ s⁻¹] | Potency (IC50) pM, MRC-5 bioassay (recombinant human IL-1β [5]) [pM] | Potency (IC50) pM, MRC-5 bioassay [6] [pM] | Potency (IC50) pM, MRC-5 bioassay (recombinant human IL-1α [7]) [pM] | Potency (IC50) pM, MRC-5 bioassay [8] [pM] | Potency (IC50) pM, MRC-5 bioassay [9] [pM] | Potency (IC50) pM, MRC-5 bioassay [10] [pM] | Binder
3 | 0.0005 | 1.3e-05 | 2.6e+07 | 2.4 | 0.00027 | 110000 | 0.01 | 1.6e-06 | 150000 | 0.001 | 1.3e-05 | 1.3e+07 | 51.2 | 1920 | 44.3 | 6.56 | 57.6 | 4.27 | DVD5-h1B12.A3-SS-X3, human anti-IL-1α/β DVD IgG1/k mut (234,235) (bispecific antibody, also called PR-1358321) heavy: not shown light: DIQMTQSPSSLSASVGDRVTITCQASTDIDDDLNWYQQKPGKAPKLLISLGSTLRPGVPSRFSGSGSGTDFTFTISSLQPEDFATYYCLQSDRLPLTFGQGTKLEIKRTVAAPDIQMTQSPSSVSASVGDRVTITCRASQGISSWLAWYQQKPGKAPKLLIYEASNLETGVPSRFSGSGSGSDFTLTISSLQPEDFATYYCQQTSSFLLSFGGGTKVEHKRTVAAPSVFIFPPSDEQLKSGTASVVCLLNNFYPREAKVQWKVDNALQSGNSQESVTEQDSKDSTYSLSSTLTLSKADYEKHKVYACEVTHQGLSSPVTKSFNRGEC
4 | 0.0002 | 5.1e-06 | 2.5e+07 | 2 | 0.00021 | 100000 | 0.12 | 1.6e-05 | 140000 | 0.0016 | 1.8e-05 | 1.1e+07 | 48.6 | 1640 | 42.8 | 1.86 | 72 | 1.91 | DVD2-h1B12.21-SS-X3, human anti-IL-1α/β DVD IgG1/k mut (234,235) (bispecific antibody, also called PR-1358317) heavy: not shown light: DIQMTQSPSSLSASVGDRVTITCQTSQDIDMDLNWYQQKPGKAPKLLISQGSTLWPGVPSRFSGSGSGTDFTFTISSLQPEDFATYYCLQTDSFPLTFGQGTKLEIKRTVAAPDIQMTQSPSSVSASVGDRVTITCRASQGISSWLAWYQQKPGKAPKLLIYEASNLETGVPSRFSGSGSGSDFTLTISSLQPEDFATYYCQQTSSFLLSFGGGTKVEHKRTVAAPSVFIFPPSDEQLKSGTASVVCLLNNFYPREAKVQWKVDNALQSGNSQESVTEQDSKDSTYSLSSTLTLSKADYEKHKVYACEVTHQGLSSPVTKSFNRGEC
